According to patent US20160333063:

Molecular target: endogenous tau of wild-type mouse primary cortical neurons, P10637
Sequence (P10637 other isoform, or with tags, fused parts or gaps): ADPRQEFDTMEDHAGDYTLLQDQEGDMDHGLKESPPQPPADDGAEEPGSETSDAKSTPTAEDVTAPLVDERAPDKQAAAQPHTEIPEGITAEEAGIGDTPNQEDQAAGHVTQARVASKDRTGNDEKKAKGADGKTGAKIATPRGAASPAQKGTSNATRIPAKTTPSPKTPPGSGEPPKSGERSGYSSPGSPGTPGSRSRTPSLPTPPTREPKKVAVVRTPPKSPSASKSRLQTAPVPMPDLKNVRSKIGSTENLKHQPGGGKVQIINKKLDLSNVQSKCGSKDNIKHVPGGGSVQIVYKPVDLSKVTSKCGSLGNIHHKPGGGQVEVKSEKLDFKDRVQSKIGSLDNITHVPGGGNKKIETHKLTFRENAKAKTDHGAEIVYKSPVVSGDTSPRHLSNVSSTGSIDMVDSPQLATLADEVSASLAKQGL

B1: caspase 3 (activated, cleaved caspase 3) of mouse primary cortical neurons (protein)
chain: SGIYLDSSYKMDYPEMGICIIINNKNFHKSTGMSSRSGTDVDAANLRETFMGLKYQVRNKNDLTREDILELMDSVSKEDHSKRSSFVCVILSHGDEGVIYGTNGPVELKKLTSFFRGDYCRSLTGKPKLFIIQACRGTELDCGIETDSGTDEEMACQKIPVEADFLYAYSTAPGYYSWRNSKDGSWFIQSLCSMLKLYAHKLEFMHILTRVNRKVATEFESFSLDSTFHAKKQIPCIVSMLTKELYFYH
  tau cleaved at Asp421 (TauC3 western blot, TauC3 to total tau): did result in increased cleavage of tau as measured by TauC3 western blot
